First the molecules themselves.
B1: Y498 IgG1 (antibody, V domains shown)
VH: KVQLVQSGTELKKPGASGKVSCKASGYTFNSNGLNWVRQAPGQGLEWVGWISGHSDETKHAQNFQGRLTLTTDTSTNTAYMELRSLRSDDTAVYYCARSLLRSLERLMGGTDAFDIWGQGTLVTVSS
VL: not shown
B2: JRFL rgp120 (natural protein)
chain: not shown

Among the targets are CN54 rgp120 (HIV-1 CN54 (CRF07_BC)); b12; VRC01.
What all share (assay): SPR
(Surface plasmon resonance follows binding to a sensor surface in real time, without labels.)

The assay “JRFL rgp120” deals with B2.

koff and Kd data for 2 molecules are collected here from publication PMC5609902 (2017).

In the case of B1, the koff with CN54 rgp120 came out at 2.3e-05 s⁻¹; in the assay with JRFL rgp120 it was 0.000105 s⁻¹.

In the case of B2, in the assay with b12, the Kd was 1.11 nM and the koff was determined as 0.000567 s⁻¹. For the same molecule, in the assay with VRC01, the Kd is 5.35 nM and the off-rate constant (koff) amounted to 0.000167 s⁻¹.

One may read the koff as the first-order rate constant of dissociation. Higher therefore signals fast dissociation. In general, Kd refers to the concentration at which binding is half-saturated. High values mean weaker binding, low ones tighter binding.
